Assay results as given in US20180371107A1 (published 2018).
Numbering of substitutions follows the chain as printed.

T1: mouse NSP4 (mNSP4), form not stated in Example 6 (mouse, UniProt Q14B24 40-284, limits assumed)
T1 construct: also called recombinant mouse NSP4; purified mouse NSP4
T1 sequence (looked up): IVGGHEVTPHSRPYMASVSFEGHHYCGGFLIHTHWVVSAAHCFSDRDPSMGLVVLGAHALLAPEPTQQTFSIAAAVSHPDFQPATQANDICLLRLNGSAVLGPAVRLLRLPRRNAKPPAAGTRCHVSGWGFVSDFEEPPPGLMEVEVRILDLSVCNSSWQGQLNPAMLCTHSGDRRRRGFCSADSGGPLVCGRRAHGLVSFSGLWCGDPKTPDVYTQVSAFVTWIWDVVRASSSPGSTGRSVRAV

T2: mouse active NSP4 (mA-NSP4) (mouse, UniProt Q14B24 40-284)
T2 construct: mature; Made from mZ by enteropeptidase cleavage; also called mature form of mouse NSP4
T2 sequence (looked up): T1 sequence (looked up)

T3: mouse zymogen NSP4 (mZ-NSP4) (mouse, UniProt Q14B24 36-284)
T3 construct: Expressed in CHO cells; also called precursor form of mouse NSP4; not shown: N-terminal FLAG tag removable by enteropeptidase (cleavage after Asp-Asp-Asp-Asp-Lys)
T3 sequence (looked up): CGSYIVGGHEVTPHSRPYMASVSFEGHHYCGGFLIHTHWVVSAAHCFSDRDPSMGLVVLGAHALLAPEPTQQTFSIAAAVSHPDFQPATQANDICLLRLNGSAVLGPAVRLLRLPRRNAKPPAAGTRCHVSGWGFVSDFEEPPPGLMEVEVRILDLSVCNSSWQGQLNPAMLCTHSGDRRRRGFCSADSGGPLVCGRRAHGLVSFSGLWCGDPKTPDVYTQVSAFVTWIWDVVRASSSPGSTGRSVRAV

T4: mouse zymogen NSP4 (mZ-NSP4) (mouse), Q14B24
T4 chain: T3 sequence (looked up)

T5: human NSP4 (hNSP4), form not stated in Example 6 (human, UniProt Q6UWY2 34-283, limits assumed)
T5 sequence (looked up): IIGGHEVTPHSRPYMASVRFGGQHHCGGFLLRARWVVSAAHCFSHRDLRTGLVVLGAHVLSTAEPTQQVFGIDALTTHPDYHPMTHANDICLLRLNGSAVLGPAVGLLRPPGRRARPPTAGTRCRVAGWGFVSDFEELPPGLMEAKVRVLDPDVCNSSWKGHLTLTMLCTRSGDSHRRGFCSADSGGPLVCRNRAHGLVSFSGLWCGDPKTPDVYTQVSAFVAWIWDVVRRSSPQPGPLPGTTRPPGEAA

B1: affinity matured anti-NSP4 antibody clone 35.77 (Fab, V domains shown)
VH: EVQLVESGGGLVQPGGSLRLSCAASGFTFSGSGIHWVRQAPGKGLEWVAWISPTGGNTYYADSVKGRFTISADTSKNTAYLQMNSLRAEDTAVYYCAKRHLHNVAFDYWGQGTLVTVSS
VL: DIQMTQSPSSLSASVGDRVTITCRASQDVSTAVAWYQQKPGKAPKLLIYSASFLYSGVPSRFSGSGSGTDFTLTISSLQPEDFATYYCQQAYSAPPTFGQGTKVEIKR
B2: anti-NSP4 antibody 5-2 (antibody, human IgG1, V domains shown)
VH: EVQLVESGGGLVQPGGSLRLSCAASGFTFSNTYISWVRQAPGKGLEWVGFIYPANGATYYADSVKGRFTISADTSKNTAYLQMNSLRAEDTAVYYCARRYRLSFDYWGQGTLVTVSS
VL: B1 VL with A91S, S93T, A94T
notes: also called Ab 5-2
B3: anti-NSP4 antibody 3-2 (antibody, V domains shown)
VH: EVQLVESGGGLVQPGGSLRLSCAASGFTFSDYSISWVRQAPGKGLEWVGEINPAGGATYYADSVKGRFTISADTSKNTAYLQMNSLRAEDTAVYYCARGDFPFWSDAYYVMDYWGQGTLVTVSS
VL: B1 VL with A91S, S93T, A94T
notes: also called Ab 3-2
B4: anti-NSP4 antibody 5-4 (antibody, human IgG1, V domains shown)
VH: EVQLVESGGGLVQPGGSLRLSCAASGFTFTSYAISWVRQAPGKGLEWVAGISPSNGYTNYADSVKGRFTISADTSKNTAYLQMNSLRAEDTAVYYCARAGRWTHSDIDYWGQGTLVTVSS
VL: B1 VL with A91S, S93T, A94T
notes: also called Ab 5-4
B5: anti-NSP4 antibody 5-3 (antibody, human IgG1, V domains shown)
VH: EVQLVESGGGLVQPGGSLRLSCAASGFTFSGNDISWVRQAPGKGLEWVAGISPYGGSTYYADSVKGRFTISADTSKNTAYLQMNSLRAEDTAVYYCARRVSFYSRHAGMDYWGQGTLVTVSS
VL: B1 VL with A91S, S93T, A94T
B6: affinity matured anti-NSP4 antibody clone 35.14 (Fab, V domains shown)
VH: EVQLVESGGGLVQPGGSLRLSCAASGFTFSDNDISWVRQAPGKGLEWVGSISPDNGDTNYADSVKGRFTISADTSKNTAYLQMNSLRAEDTAVYYCARDDVPAVFTSAMDYWGQGTLVTVSS
VL: B1 VL with A91S, S93G, A94F, P96L
B7: anti-NSP4 antibody 3-5 (antibody, V domains shown)
VH: B6 VH
VL: B1 VL with A91S, S93T, A94T
notes: also called Ab 3-5; Ab35
B8: affinity matured anti-NSP4 antibody clone 35.62 (Fab, V domains shown)
VH: B6 VH
VL: B1 VL with A91S, Y92A, S93G, A94F, P96L
B9: affinity matured anti-NSP4 antibody clone 35.50 (Fab, V domains shown)
VH: B6 VH
VL: B1 VL with A91S, S93D, A94F, P96L
B10: anti-NSP4 antibody 5-1 (antibody, V domains shown)
VH: B1 VH with R99S, H100L, L101F
VL: B1 VL with A91S, S93T, A94T
notes: also called Ab 5-1; Ab5-1

Key:
[1] = target: T1, mouse NSP4 (mNSP4), form not stated in …; experiment: ratio of phage IC50 against the parental clone 35.WT
[2] = target: T1, mouse NSP4 (mNSP4), form not stated in …; experiment: phage competition binding assay (phage IC50), soluble mNSP4 competitor
[3] = target: T2, mouse active NSP4 (mA-NSP4); experiment: competition phage ELISA (phage IC50): phage clone preincubated with soluble mA-NSP4, then on NSP4-coated wells
Method: Phage at sub-saturating concentrations were first incubated with increasing concentrations of target NSP4 antigen (either hZ, hA, mZ, or mA) for 1 to 2 hour(s), and then transferred to wells coated with the same NSP4 antigen to capture the unbound phage.
Briefly, 2 ug/ml of NSP4 (hZ, hA, mZ, or mA variants) was coated on wells overnight at 4° C. in PBS supplemented with 0.5% BSA. Each individual phage clone (at 0.01 OD/ml) was purified and incubated with increasing concentrations of soluble NSP4 protein for 2 h at room temperature before being placed into wells coated with immobilized NSP4 protein for 15 min at room temperature. The wells were then washed with PBS supplemented with 0.05% Tween-20 for 10 times and developed using anti-M13 phage antibody conjugated with HRP (New England Biolabs). […] The soluble phage:antigen complex, with higher likelihood to be high-affinity phage clones, would thus be removed through successive washing steps, resulting in lower A450 signal at any given concentration of soluble antigen. Consequently, higher affinity phage clones would have a lower phage IC50 value, with a concomitant leftward-shift in the binding curves, compared to lower affinity phage clones.

[4] = target: T3, mouse zymogen NSP4 (mZ-NSP4); experiment: competition phage ELISA (phage IC50): phage clone preincubated with soluble mZ-NSP4, then on NSP4-coated wells
[5] = target: T4, mouse zymogen NSP4 (mZ-NSP4) (mouse), …; experiment: BLI; no affinity; conditions: chains VH:VL; remark: other sources report otherwise
[6] = target: T5, human NSP4 (hNSP4), form not stated in …; experiment: phage competition binding assay (phage IC50), soluble hNSP4 competitor

Row | Binder | Affinity improvement to mNSP4 [1] [fold] | IC50 [2] [nM] | IC50 [3] [nM] | IC50 [4] [nM] | Kd [5] [nM] | IC50 [6] [nM]
1 | B1 | 2 | 0.064 |  |  |  | 
2 | B2 |  |  | 25 |  |  | 
3 | B3 |  |  |  | 0.15 |  | 
4 | B4 |  |  | 60.5 |  | > 1000 | 
5 | B5 |  |  | 319 |  | > 1000 | 
6 | B6 | 2.7 | 0.048 |  |  |  | 23.4
7 | B7 |  | 0.131 |  | 0.18 |  | 32.8
8 | B8 | 0.6 | 0.206 |  |  |  | 25.7
9 | B9 | 1.7 | 0.075 |  |  |  | 22.8
10 | B10 |  | 18.7 | 9.93 |  | > 1000 | 
